From IntAct's records for PubMed 20551905

B1: SUN domain-containing protein 2 (Homo sapiens), Q9UH99 (parent)
chain: MSRRSQRLTRYSQGDDDGSSSSGGSSVAGSQSTLFKDSPLRTLKRKSSNMKRLSPAPQLGPSSDAHTSYYSESLVHESWFPPRSSLEELHGDANWGEDLRVRRRRGTGGSESSRASGLVGRKATEDFLGSSSGYSSEDDYVGYSDVDQQSSSSRLRSAVSRAGSLLWMVATSPGRLFRLLYWWAGTTWYRLTTAASLLDVFVLTRRFSSLKTFLWFLLPLLLLTCLTYGAWYFYPYGLQTFHPALVSWWAAKDSRRPDEGWEARDSSPHFQAEQRVMSRVHSLERRLEALAAEFSSNWQKEAMRLERLELRQGAPGQGGGGGLSHEDTLALLEGLVSRREAALKEDFRRETAARIQEELSALRAEHQQDSEDLFKKIVRASQESEARIQQLKSEWQSMTQESFQESSVKELRRLEDQLAGLQQELAALALKQSSVAEEVGLLPQQIQAVRDDVESQFPAWISQFLARGGGGRVGLLQREEMQAQLRELESKILTHVAEMQGKSAREAAASLSLTLQKEGVIGVTEEQVHHIVKQALQRYSEDRIGLADYALESGGASVISTRCSETYETKTALLSLFGIPLWYHSQSPRVILQPDVHPGNCWAFQGPQGFAVVRLSARIRPTAVTLEHVPKALSPNSTISSAPKDFAIFGFDEDLQQEGTLLGKFTYDQDGEPIQTFHFQAPTMATYQVVELRILTNWGHPEYTCIYRFRVHGEPAH

Variants of: B1
Conditions: with copb_human COPB1, P53618
Chain of copb_human COPB1, P53618 (P53618 whole entry): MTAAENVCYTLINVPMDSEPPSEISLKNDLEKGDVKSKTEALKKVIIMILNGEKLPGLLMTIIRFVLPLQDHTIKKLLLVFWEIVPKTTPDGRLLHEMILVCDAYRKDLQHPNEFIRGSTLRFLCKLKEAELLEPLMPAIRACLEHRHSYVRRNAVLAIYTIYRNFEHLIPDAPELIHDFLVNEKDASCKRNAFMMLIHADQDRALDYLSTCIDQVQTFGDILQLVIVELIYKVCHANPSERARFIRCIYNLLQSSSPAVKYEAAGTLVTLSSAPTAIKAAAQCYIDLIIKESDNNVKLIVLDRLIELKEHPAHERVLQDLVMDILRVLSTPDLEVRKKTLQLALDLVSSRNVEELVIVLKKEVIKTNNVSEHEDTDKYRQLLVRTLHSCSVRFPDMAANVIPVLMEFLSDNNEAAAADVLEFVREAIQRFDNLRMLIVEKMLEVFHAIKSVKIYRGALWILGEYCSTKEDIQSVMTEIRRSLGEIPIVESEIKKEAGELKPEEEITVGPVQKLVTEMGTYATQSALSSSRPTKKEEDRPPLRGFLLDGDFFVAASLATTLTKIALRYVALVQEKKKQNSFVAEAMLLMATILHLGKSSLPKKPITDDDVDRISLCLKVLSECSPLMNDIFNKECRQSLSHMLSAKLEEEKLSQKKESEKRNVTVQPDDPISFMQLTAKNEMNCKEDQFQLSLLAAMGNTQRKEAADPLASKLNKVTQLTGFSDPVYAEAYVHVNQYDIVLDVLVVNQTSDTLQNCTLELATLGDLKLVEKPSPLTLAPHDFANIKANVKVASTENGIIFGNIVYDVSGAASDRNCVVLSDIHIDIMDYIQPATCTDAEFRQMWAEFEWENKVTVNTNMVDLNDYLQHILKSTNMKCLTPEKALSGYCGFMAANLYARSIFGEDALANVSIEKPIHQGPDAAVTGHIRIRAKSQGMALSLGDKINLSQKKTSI

Question: With R45A as the variant, how does the “effect of a mutation on the interaction” value read?
Answer: The value was “disrupting interaction”.

Question: For R41A, which “effect of a mutation on the interaction” value is on record?
Answer: The value was “disrupting interaction”.

Question: K51A was tested. Which “effect of a mutation on the interaction” value did it give?
Answer: Its value is “disrupting interaction”.

Question: With K44A as the variant, how does the “effect of a mutation on the interaction” value read?
Answer: Its value is “disrupting interaction”.

Question: With K46A as the variant, how does the “effect of a mutation on the interaction” value read?
Answer: Its value is “disrupting interaction”.

Question: R102A;R103A;R104A;R105A was tested. Which “effect of a mutation on the interaction” value did it give?
Answer: Its value is “disrupting interaction”.

Question: With R52A as the variant, how does the “effect of a mutation on the interaction” value read?
Answer: The value was “disrupting interaction”.
